Source: ChEMBL document CHEMBL3526030, “Transport of the coumarin metabolite 7-hydroxycoumarin glucuronide is mediated via multidrug resistance-associated proteins 3 and 4” (Drug Metab Dispos, 2012)

Tests used:
[1] = substrate: O=C(O)[C@H]1O[C@@H](Oc2ccc3ccc(=O)oc3c2)[C@H](O)[C@@H](O)[C@@H]1O; experiment: Activity at MRP3 (unknown origin) expressed in baculovirus-infected HEK293 cells assessed as drug transport after 10 mins by Michaelis-Menten plot analysis; type: ADME, Homo sapiens
[2] = substrate: O=C(O)[C@H]1O[C@@H](Oc2ccc3ccc(=O)oc3c2)[C@H](O)[C@@H](O)[C@@H]1O; experiment: Activity at MRP4 (unknown origin) expressed in baculovirus-infected HEK293 cells assessed as drug transport after 10 mins by Michaelis-Menten plot analysis; type: ADME, Homo sapiens

B1: ATP-binding cassette sub-family C member 3 (Homo sapiens) (protein)
chain: MDALCGSGELGSKFWDSNLSVHTENPDLTPCFQNSLLAWVPCIYLWVALPCYLLYLRHHCRGYIILSHLSKLKMVLGVLLWCVSWADLFYSFHGLVHGRAPAPVFFVTPLVVGVTMLLATLLIQYERLQGVQSSGVLIIFWFLCVVCAIVPFRSKILLAKAEGEISDPFRFTTFYIHFALVLSALILACFREKPPFFSAKNVDPNPYPETSAGFLSRLFFWWFTKMAIYGYRHPLEEKDLWSLKEEDRSQMVVQQLLEAWRKQEKQTARHKASAAPGKNASGEDEVLLGARPRPRKPSFLKALLATFGSSFLISACFKLIQDLLSFINPQLLSILIRFISNPMAPSWWGFLVAGLMFLCSMMQSLILQHYYHYIFVTGVKFRTGIMGVIYRKALVITNSVKRASTVGEIVNLMSVDAQRFMDLAPFLNLLWSAPLQIILAIYFLWQNLGPSVLAGVAFMVLLIPLNGAVAVKMRAFQVKQMKLKDSRIKLMSEILNGIKVLKLYAWEPSFLKQVEGIRQGELQLLRTAAYLHTTTTFTWMCSPFLVTLITLWVYVYVDPNNVLDAEKAFVSVSLFNILRLPLNMLPQLISNLTQASVSLKRIQQFLSQEELDPQSVERKTISPGYAITIHSGTFTWAQDLPPTLHSLDIQVPKGALVAVVGPVGCGKSSLVSALLGEMEKLEGKVHMKGSVAYVPQQAWIQNCTLQENVLFGKALNPKRYQQTLEACALLADLEMLPGGDQTEIGEKGINLSGGQRQRVSLARAVYSDADIFLLDDPLSAVDSHVAKHIFDHVIGPEGVLAGKTRVLVTHGISFLPQTDFIIVLADGQVSEMGPYPALLQRNGSFANFLCNYAPDEDQGHLEDSWTALEGAEDKEALLIEDTLSNHTDLTDNDPVTYVVQKQFMRQLSALSSDGEGQGRPVPRRHLGPSEKVQVTEAKADGALTQEEKAAIGTVELSVFWDYAKAVGLCTTLAICLLYVGQSAAAIGANVWLSAWTNDAMADSRQNNTSLRLGVYAALGILQGFLVMLAAMAMAAGGIQAARVLHQALLHNKIRSPQSFFDTTPSGRILNCFSKDIYVVDEVLAPVILMLLNSFFNAISTLVVIMASTPLFTVVILPLAVLYTLVQRFYAATSRQLKRLESVSRSPIYSHFSETVTGASVIRAYNRSRDFEIISDTKVDANQRSCYPYIISNRWLSIGVEFVGNCVVLFAALFAVIGRSSLNPGLVGLSVSYSLQVTFALNWMIRMMSDLESNIVAVERVKEYSKTETEAPWVVEGSRPPEGWPPRGEVEFRNYSVRYRPGLDLVLRDLSLHVHGGEKVGIVGRTGAGKSSMTLCLFRILEAAKGEIRIDGLNVADIGLHDLRSQLTIIPQDPILFSGTLRMNLDPFGSYSEEDIWWALELSHLHTFVSSQPAGLDFQCSEGGENLSVGQRQLVCLARALLRKSRILVLDEATAAIDLETDNLIQATIRTQFDTCTVLTIAHRLNTIMDYTRVLVLDKGVVAEFDSPANLIAARGIFYGMARDAGLA
[1]
  Km: 187 µM
  Vmax: 0.00046 µmol/min/mg

B2: ATP-binding cassette sub-family C member 4 (Homo sapiens) (protein)
chain: MLPVYQEVKPNPLQDANLCSRVFFWWLNPLFKIGHKRRLEEDDMYSVLPEDRSQHLGEELQGFWDKEVLRAENDAQKPSLTRAIIKCYWKSYLVLGIFTLIEESAKVIQPIFLGKIINYFENYDPMDSVALNTAYAYATVLTFCTLILAILHHLYFYHVQCAGMRLRVAMCHMIYRKALRLSNMAMGKTTTGQIVNLLSNDVNKFDQVTVFLHFLWAGPLQAIAVTALLWMEIGISCLAGMAVLIILLPLQSCFGKLFSSLRSKTATFTDARIRTMNEVITGIRIIKMYAWEKSFSNLITNLRKKEISKILRSSCLRGMNLASFFSASKIIVFVTFTTYVLLGSVITASRVFVAVTLYGAVRLTVTLFFPSAIERVSEAIVSIRRIQTFLLLDEISQRNRQLPSDGKKMVHVQDFTAFWDKASETPTLQGLSFTVRPGELLAVVGPVGAGKSSLLSAVLGELAPSHGLVSVHGRIAYVSQQPWVFSGTLRSNILFGKKYEKERYEKVIKACALKKDLQLLEDGDLTVIGDRGTTLSGGQKARVNLARAVYQDADIYLLDDPLSAVDAEVSRHLFELCICQILHEKITILVTHQLQYLKAASQILILKDGKMVQKGTYTEFLKSGIDFGSLLKKDNEESEQPPVPGTPTLRNRTFSESSVWSQQSSRPSLKDGALESQDTENVPVTLSEENRSEGKVGFQAYKNYFRAGAHWIVFIFLILLNTAAQVAYVLQDWWLSYWANKQSMLNVTVNGGGNVTEKLDLNWYLGIYSGLTVATVLFGIARSLLVFYVLVNSSQTLHNKMFESILKAPVLFFDRNPIGRILNRFSKDIGHLDDLLPLTFLDFIQTLLQVVGVVSVAVAVIPWIAIPLVPLGIIFIFLRRYFLETSRDVKRLESTTRSPVFSHLSSSLQGLWTIRAYKAEERCQELFDAHQDLHSEAWFLFLTTSRWFAVRLDAICAMFVIIVAFGSLILAKTLDAGQVGLALSYALTLMGMFQWCVRQSAEVENMMISVERVIEYTDLEKEAPWEYQKRPPPAWPHEGVIIFDNVNFMYSPGGPLVLKHLTALIKSQEKVGIVGRTGAGKSSLISALFRLSEPEGKIWIDKILTTEIGLHDLRKKMSIIPQEPVLFTGTMRKNLDPFNEHTDEELWNALQEVQLKETIEDLPGKMDTELAESGSNFSVGQRQLVCLARAILRKNQILIIDEATANVDPRTDELIQKKIREKFAHCTVLTIAHRLNTIIDSDKIMVLDSGRLKEYDEPYVLLQNKESLFYKMVQQLGKAEAAALTETAKQVYFKRNYPHIGHTDHMVTNTSNGQPSTLTIFETAL
[2]
  Km: 63 µM
  Vmax: 0.00092 µmol/min/mg
